Blank lines part the entries; values can stand above or below the molecule they belong to.
What was measured:
[1] = target: human c-NADP-ME H51A/D90A (human) (UniProt P48163); test: AUC; sedimentation velocity, 0.3 mg/ml protein, 30 mM Tris-acetate pH 7.4, without urea, 20°C, 42,000 rpm, SEDFIT continuous size distribution
[2] = target: human c-NADP-ME H51A/D139A (human) (UniProt P48163); test: as above
[3] = target: human c-NADP-ME H142A (human) (UniProt P48163); test: as above
[4] = target: human c-NADP-ME H142A/D568A (human) (UniProt P48163); test: as above
[5] = target: human c-NADP-ME W572A (human) (UniProt P48163); test: as above
[6] = target: T1, human cytosolic NADP+-dependent malic enzyme, wild type (human), P48163; test: AUC; sedimentation velocity, 0.3 mg/ml protein, preincubated with 2 M urea in 30 mM Tris-acetate pH 7.4 at 25°C for 16 h, run at 20°C; details: remark: other sources report otherwise
T1 chain: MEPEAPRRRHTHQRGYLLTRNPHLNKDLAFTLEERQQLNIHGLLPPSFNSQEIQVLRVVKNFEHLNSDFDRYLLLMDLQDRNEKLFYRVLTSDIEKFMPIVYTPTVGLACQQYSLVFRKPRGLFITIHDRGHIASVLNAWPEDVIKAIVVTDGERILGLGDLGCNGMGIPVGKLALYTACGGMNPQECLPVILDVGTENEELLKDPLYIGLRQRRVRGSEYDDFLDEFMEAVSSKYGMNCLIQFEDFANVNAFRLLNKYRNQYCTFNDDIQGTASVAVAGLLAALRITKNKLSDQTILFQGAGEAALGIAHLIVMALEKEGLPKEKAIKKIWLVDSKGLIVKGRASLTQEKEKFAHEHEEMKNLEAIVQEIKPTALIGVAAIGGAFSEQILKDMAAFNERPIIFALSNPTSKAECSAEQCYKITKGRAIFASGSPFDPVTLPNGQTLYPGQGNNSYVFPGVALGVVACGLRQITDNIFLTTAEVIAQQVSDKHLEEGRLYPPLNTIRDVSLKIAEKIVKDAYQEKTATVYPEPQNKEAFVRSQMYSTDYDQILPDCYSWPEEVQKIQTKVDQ

stoichiometry N [1]: 2
Molecule: human c-NADP-ME H51A/D90A (from UniProt P48163 13-564) (enzyme)

stoichiometry N [2]: 2
Molecule: human c-NADP-ME H51A/D139A (from UniProt P48163 13-564) (enzyme)

stoichiometry N [3]: 2
Molecule: human c-NADP-ME H142A (from UniProt P48163 13-564) (enzyme)

stoichiometry N [4]: 2
Molecule: human c-NADP-ME H142A/D568A (from UniProt P48163 13-564) (enzyme)

stoichiometry N [5]: 2
Molecule: human c-NADP-ME W572A (from UniProt P48163 13-564) (enzyme)

stoichiometry N [6]: 2
B1: human cytosolic NADP+-dependent malic enzyme, wild type, P48163 1-572 (enzyme)
chain: T1 chain
